From US20240010735A1 (EISAI R AND D MANAGEMENT, published 2024)

Key:
Experiment in all cases: ELISA: SEAP-His proteins (1 nM) captured on anti-6-His antibody, antibody A 10 µg/mL with human IgG 100 µg/mL, HRP anti-mouse IgG, OD450 as % of human EphA4-SEAP-His
[1] = biological target: T1, human EphB6 extracellular region-SEAP-His protein (human, UniProt O15197 32-594)
T1 construct: extracellular domain; also called Eph receptor extracellular region-SEAP-His protein; not shown: secretory alkaline phosphatase (SEAP); histidine tag
T1 sequence (looked up): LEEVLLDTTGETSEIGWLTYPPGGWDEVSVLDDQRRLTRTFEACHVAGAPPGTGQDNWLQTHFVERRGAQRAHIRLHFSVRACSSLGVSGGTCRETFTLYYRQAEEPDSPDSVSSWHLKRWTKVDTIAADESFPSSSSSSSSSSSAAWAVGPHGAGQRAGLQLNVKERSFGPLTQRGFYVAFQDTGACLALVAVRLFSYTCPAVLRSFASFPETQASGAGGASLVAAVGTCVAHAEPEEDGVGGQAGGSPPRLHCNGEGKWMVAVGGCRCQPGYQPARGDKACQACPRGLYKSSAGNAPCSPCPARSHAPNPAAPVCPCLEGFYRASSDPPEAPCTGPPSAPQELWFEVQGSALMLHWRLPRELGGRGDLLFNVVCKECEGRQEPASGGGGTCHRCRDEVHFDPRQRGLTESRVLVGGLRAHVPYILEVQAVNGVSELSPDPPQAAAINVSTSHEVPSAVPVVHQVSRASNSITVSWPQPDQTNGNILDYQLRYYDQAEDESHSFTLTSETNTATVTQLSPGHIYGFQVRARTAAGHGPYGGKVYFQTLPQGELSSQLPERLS
Experimental: (§1) Rabbit anti-6-His antibodies (Bethel Laboratories) were coated onto the wells of a 96-well plate (Nunc). After incubating at 4° C. overnight, the wells were blocked at room temperature for 1 hour by 1% Block Ace (DS Pharma Biomedical). After washing 3 times with 0.05% Tween 20/PBS (Thermo […]), each Eph receptor of human extracellular region-SEAP-His protein (final concentration 1 nM) was seeded into each well, and incubated at room temperature for 1 hour. After washing 3 times, human IgG solution (100 μg/mL, Mitsubishi Pharma Corporation) and antibody A (10 μg/mL) were supplemented to the wells, and incubated at room temperature for 1 hour. Horseradish peroxidase-labeled donkey anti-mouse IgG antibody (Jackson ImmunoResearch Laboratories) was added, and incubated at room, temperature for 1 hour. After washing 3 times, TMBZ (3,3′,5,5′-tetramethylbenzidine, Sigma) solution was added to the wells, and upon confirmation of modest coloring, an equal amount of quenching solution (1 N H₂SO₄, Wako Pure Chemicals) was added to the wells, and absorbance at 450 nm was read by a microplate reader (PerkinElmer).

[2] = biological target: T2, human EphB4 extracellular region-SEAP-His protein (human, UniProt P54760 16-539)
T2 construct: extracellular domain; also called Eph receptor extracellular region-SEAP-His protein; not shown: secretory alkaline phosphatase (SEAP); histidine tag
T2 sequence (looked up): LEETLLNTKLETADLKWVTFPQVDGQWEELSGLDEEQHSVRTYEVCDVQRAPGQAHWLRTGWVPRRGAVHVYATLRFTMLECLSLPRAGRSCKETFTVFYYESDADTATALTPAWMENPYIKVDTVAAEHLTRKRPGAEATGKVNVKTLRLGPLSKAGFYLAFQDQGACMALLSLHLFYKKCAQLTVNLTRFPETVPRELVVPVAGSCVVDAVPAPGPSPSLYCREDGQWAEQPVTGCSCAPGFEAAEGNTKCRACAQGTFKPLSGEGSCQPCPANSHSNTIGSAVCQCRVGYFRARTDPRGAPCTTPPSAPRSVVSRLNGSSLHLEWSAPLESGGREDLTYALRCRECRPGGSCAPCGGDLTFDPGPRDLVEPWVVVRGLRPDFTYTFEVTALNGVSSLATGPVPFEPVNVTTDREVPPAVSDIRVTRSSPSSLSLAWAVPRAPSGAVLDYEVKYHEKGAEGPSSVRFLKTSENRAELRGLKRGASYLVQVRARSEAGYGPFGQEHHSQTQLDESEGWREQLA
Experimental: as §1

[3] = biological target: T3, human EphA1 extracellular region-SEAP-His protein (human, UniProt P21709 26-547)
T3 construct: extracellular domain; also called Eph receptor extracellular region-SEAP-His protein; not shown: secretory alkaline phosphatase (SEAP); histidine tag
T3 sequence (looked up): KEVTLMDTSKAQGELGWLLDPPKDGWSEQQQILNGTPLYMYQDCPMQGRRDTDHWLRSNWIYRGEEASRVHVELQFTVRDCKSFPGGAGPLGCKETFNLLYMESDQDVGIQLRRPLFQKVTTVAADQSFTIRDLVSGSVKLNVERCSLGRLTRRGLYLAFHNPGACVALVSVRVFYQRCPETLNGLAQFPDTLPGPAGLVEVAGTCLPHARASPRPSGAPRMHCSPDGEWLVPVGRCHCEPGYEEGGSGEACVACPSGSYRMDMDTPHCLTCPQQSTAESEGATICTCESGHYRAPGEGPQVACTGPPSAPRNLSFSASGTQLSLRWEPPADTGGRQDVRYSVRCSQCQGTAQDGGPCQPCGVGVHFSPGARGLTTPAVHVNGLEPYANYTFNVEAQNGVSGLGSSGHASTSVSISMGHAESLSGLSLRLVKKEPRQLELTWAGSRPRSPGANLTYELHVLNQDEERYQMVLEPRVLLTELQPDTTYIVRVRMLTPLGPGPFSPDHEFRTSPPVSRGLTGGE
Experimental: as §1

Measured: binding result

B1: mouse anti-EphA4 monoclonal antibody (antibody A) (antibody, mouse IgG1, kappa, V domains shown)
VH: QVQLKQSGPSLVQPSQSLSITCTVSGFSLTRYGVHWVRQSPGKGLEWLGVIWRGGSTDYNAAFMSRLSITKDNSKSQVFFKMNSLQADDTAIYYCAKESLFGVYYDYGYYSMDYWGQGTSVTVSS
VL: DIQMTQSPSSLSASLGERVSLTCRASQEISGYLSWLQQKPDGTIKRLIYAASTLDSGVPKRFSGSRSGSDYSLTISSLESEDFADYYCLQYASYPLTFGAGTKLELKR
notes: purified from hybridoma supernatant
no binding (tested: 10 µg/mL): all assays above
